Reference: patent publication US8076085

Columns and labels:
Test in all cases: inhibition ELISA: serum preincubated with soluble peptide, then preS1 (94-117) coated plate
[1] = biological target: IgG anti-preS1 (94-117) in serum of HBeAg+ patient with acute resolving HB-infection (FIG. 5b)
[2] = biological target: IgG anti-preS1 (94-117) in serum of HBeAg+ patient with acute resolving HB-infection (FIG. 6a)
[3] = biological target: IgG anti-preS1 (94-117) in serum of one HBeAg+ patient with chronic HBV-infection who later spontaneously seroconverted to anti-HBe (FIG. 5a)
[4] = biological target: IgG anti-preS1 (94-117) in serum from a HBeAg+ chronic patient (FIG. 7)
[5] = biological target: IgG anti-preS1 (94-117) in serum of HBeAg+ patient with acute resolving HB-infection (FIG. 6b)

Measured: percent inhibition

PASTNRQSGRQPTPISPPLRDSHP [preS1#94-117 peptide (HBV subtypes adw, adw2 and two of three adr subtypes)]
100%: all assays above
